Key:
MS2 coat protein = experiment: apparent KD of MS2 coat protein; higher = weaker reporter binding; settings: Eterna round: R107
Description: (§1)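 RNA-MaP round R107: designed RNA switches with theophylline, tryptophan, arginine or FMN aptamers are transcribed on-chip within common flanks. They are titrated with SNAP-549-labelled MS2 coat protein in RNA-MaP buffer (100 mM Tris pH 7.5, 80 mM KCl, 4 mM MgCl2), without ligand or with the indicated ligand. Median apparent KD per design.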

[1] = system: K4 kissing-loop RNA reporter; experiment: apparent KD of K4 kissing-loop reporter; higher = weaker reporter binding; settings: Eterna round: R107;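 also: bound reporter read as fluorescence of individual clusters on recovered sequencing chips by microscopy, with normalized cluster intensities fitted with a binding model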
Description: as §1, with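 “a labelled K4 kissing-loop RNA reporter” for “SNAP-549-labelled MS2 coat protein”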

[2] = input ligand: theophylline 20 uM
[3] = input ligand: tryptophan 2.4 mM
[4] = input ligand: theophylline 2 mM

Row | Sequence | apparent KD of MS2 coat protein (MS2 coat protein; input ligand: arginine 13.2 mM) | apparent KD of MS2 coat protein (MS2 coat protein; [2]) | apparent KD of MS2 coat protein (MS2 coat protein; [3]) | apparent KD of MS2 coat protein (MS2 coat protein; [4]) | apparent KD of MS2 coat protein (MS2 coat protein; input ligand: none) | apparent KD of K4 kissing-loop reporter ([1]; input ligand: FMN 200 uM) | apparent KD of K4 kissing-loop reporter ([1]; input ligand: arginine 13.2 mM) | apparent KD of K4 kissing-loop reporter ([1]; input ligand: none) | apparent KD of K4 kissing-loop reporter [1, 2] | apparent KD of K4 kissing-loop reporter [1, 3]
1 | AAGCUGCCAAGAAGGUGAUCCAAAUGUGAUACCAGCUAGGAAACUAGCCCUUGGCAGCACAUGAGGAUCACCCAUGUAAUAAUAA [(T)'-(M)'-(T1)-(T2)-(M1)-(M2)_Design1_2/19/17] | 37.7 nM | 191 nM | 48.3 nM | – | – | – | – | – | – | –
2 | AAGCUUCGCAUAGGAAAACUAUGUGAAGCUCGAGGACCGGUACGGCCGCCACUCGUCCUCAACAUGAGGAUCACCCAUGUAAUAA [Mat - Exclusion - Trytophan A - D2] | 20.7 nM | 28.6 nM | – | 25.9 nM | – | – | – | – | – | –
3 | AAGGCACGAGACAUGAGGAUCACCCAUGUUCGAGGACCGGUACGGCCGCCACUCGGUGGACUCAUGGUAAAGCCGGUGAGCCAAA [AK 1.1 SS Trypt (A)] | 18 nM | 25.2 nM | – | 22.5 nM | – | – | – | – | – | –
4 | AAGUAAACAUGAGCAAAGCUCAUGUGCGAAGGAGCGGCGGAAACGCCAGGUAGGUCGCGCACAUGAGCAUCAGCCAUGUGUGUCA [Omei Arginine B SS A v1] | 11.2 nM | 89.8 nM | 52.9 nM | 58.9 nM | 37.9 nM | – | – | – | – | –
5 | UUGUGCAGCAAUCGAGUGAUGUUCGACGAUACCAGCCUCGAUAGAGGCCCUUGGCAGCGUAUCAUCACAUGCCAAGAGCUGCACU [#SwitchBubble 5] | – | – | – | – | – | 530 nM | 362 nM | 428 nM | 368 nM | 419 nM
6 | UUUAUAAUGUCGGCCGCCACUGGAUUAAUAUUUGUAUAAUCUAGUUCUGAGUGAUGUUUAGAGUCCAGGACCGGGACAUUUGUUA [#10 K4 Tryptophan B Exclusion] | – | – | – | – | – | 701 nM | 515 nM | 651 nM | 788 nM | 520 nM
7 | UUUAUAUAGUCGGCCGCCACUGAUUUUUAUAUAUGUUUAUGUUUAUACGAGUGAUGUUCGUUAUUCAGGACCGGGACUUUUGUUA [JR_SSTryptoB_Sub016] | – | – | – | – | – | 108 nM | 133 nM | 109 nM | 117 nM | 102 nM
8 | UUUAUUAAGACGGCCGCCACUGAAUUAGAGUGAUGUUCUAAAAUUUUUAAUUUUUUUUUUUUCAGCAGGACCGGGUCAAUUAUUA [JR_SSTryptoB_Sub012] | – | – | – | – | – | 128 nM | 95.3 nM | 116 nM | 142 nM | 94.5 nM
9 | UUUCGGUUCUGAGGAUAUUCGGACAAAUAUAGUGAUGUUGUAUAAGGAGGAGGGUGUUGGCAGUGCGGAGAAGGCAGAAGAGGAU [ExFMNB.U] | – | – | – | – | – | 848 nM | 737 nM | 992 nM | 556 nM | 446 nM
10 | UUUCGUAGAAGUGAUACCAGACUUGAAAGUGAUGUUUUCCAAUAAUUUAAAUUUUUAGCUGUCCCUUGGCAGCACAGUUUAUUUA [JR_Nu_ExcTheophyB_Sub026] | – | – | – | – | – | 218 nM | 298 nM | 263 nM | 334 nM | 165 nM
11 | UUUGAAAUGACUGAUACCAGUGAAAAUAUAUGUAGUGAUGUUAUAUACUAAUUUAAUAAGCGCCCUUGGCAGCAGUAUGAAUUAU [AstrosExc-theB#16] | – | – | – | – | – | 763 nM | 565 nM | 927 nM | 527 nM | 560 nM
12 | UUUUACGAGUGAUGUUCGUAAUGUAAUAGUUAGGAUAUCGUUUUUUCGAGAAGGAACUUCGAAGUGAUACGAAAGUAUCGCUUCG [FMN A 9] | – | – | – | – | – | 127 nM | 160 nM | 184 nM | 154 nM | 159 nM
13 | UUUUAGGUAUCUGAUACCAGAGAAAAUAUAUGUAGUGAUGUUAUAUACAAAAUAAUUAAGCUCCCUUGGCAGCAGUAUUAAUUUU [AstrosExc-TheB#3] | – | – | – | – | – | 825 nM | 742 nM | 854 nM | 917 nM | 717 nM
14 | UUUUGCGCGUACGAUACCAGUAUCUGUAAGAGUGAUGUUCAGCGCUGAAGACAGCAGCGAUACCCUUGGCAGCGUUACAUGCUAG [theeternabot_sameState_KL_Theo_B_22] | – | – | – | – | – | 797 nM | 422 nM | 553 nM | 475 nM | 530 nM
15 | UUUUUGGAGAAUUAUAGUGAUGUUAUGAAGGAGGAUAUCUGGAGAUGGAGAAGGCCUAGUGGCUCAGCCAUGGAGGGUGGGUGGG [ExFMNA.aA] | – | – | – | – | – | 1110 nM | 527 nM | 894 nM | 655 nM | 611 nM
16 | UUUUUUAAUGGAAGGAGCGCGUGGGCGCAGUGAUGUUGCGCCCGACAUCACUUCAACUUAACGCAGGUAGGUCGCCAUUAUUUUU [Arginine B (Excl) V6] | – | – | – | – | – | 136 nM | 128 nM | 122 nM | 119 nM | 127 nM
